In the Human Domainome abundance scans (Beltran et al. 2025):
± gives the uncertainty stated by the source.

B1: Steroid hormone receptor ERR2, residues 100 to 176; numbered along this chain, O95718 (parent)
chain: KRLCLVCGDIASGYHYGVASCEACKAFFKRTIQGNIEYSCPATNECEITKRRRKSCQACRFMKCLKVGMLKEGVRLD

Variants of: B1
Assay: abundance fitness (aPCA) (normalised: wild type 0, dead -1); higher = more abundant; growth selection in yeast, the domain comes from the species named
Details: Homo sapiens

Variant	abundance fitness
KRLCLVCGDIASGYHYGVASCEACKAFFKRTIQGNIEYSCPATNECEITKRRRKSCQACRFMKCLKVLMLKEGVRLD	-0.749 ± 0.11
KRLCLVCGDIASGYHYGVASCEACKAFFKRTIQGNIEYSCPATNECEITKRRRKSCQACRFMKCLKVDMLKEGVRLD	-0.267 ± 0.11
KRLCLVCGDIASGYHYGVASCEACKAFFKRTIQGNIEYSCPATNECEITKRRRKSCQACRFMKCLKVNMLKEGVRLD	-0.753 ± 0.33
KRLCLVCGDIASGYHYGVASCEACKAFFKRTIQGNIEYSCPATNECEITKRRRKSCQACRFMKCLKVKMLKEGVRLD	-0.454 ± 0.099
KRLCLVCGDIASGYHYGVASCEACKAFFKRTIQGNIEYSCPATNECEITKRRRKSCQACRFMKCLKVWMLKEGVRLD	-0.806 ± 0.12
KRLCLVCGDIASGYHYGVASCEACKAFFKRTIQGNIEYSCPATNECEITKRRRKSCQACRFMKCLKVAMLKEGVRLD	-0.777 ± 0.098
KRLCLVCGDIASGYHYGVASCEACKAFFKRTIQGNIEYSCPATNECEITKRRRKSCQACRFMKCLKVPMLKEGVRLD	-0.894 ± 0.23
KRLCLVCGDIASGYHYGVASCEACKAFFKRTIQGNIEYSCPATNECEITKRRRKSCQACRFMKCLKVGNLKEGVRLD	-0.642 ± 0.17
KRLCLVCGDIASGYHYGVASCEACKAFFKRTIQGNIEYSCPATNECEITKRRRKSCQACRFMKCLKVGELKEGVRLD	-0.57 ± 0.1
KRLCLVCGDIASGYHYGVASCEACKAFFKRTIQGNIEYSCPATNECEITKRRRKSCQACRFMKCLKVGRLKEGVRLD	-0.729 ± 0.075
KRLCLVCGDIASGYHYGVASCEACKAFFKRTIQGNIEYSCPATNECEITKRRRKSCQACRFMKCLKVGALKEGVRLD	-0.639 ± 0.094
KRLCLVCGDIASGYHYGVASCEACKAFFKRTIQGNIEYSCPATNECEITKRRRKSCQACRFMKCLKVGWLKEGVRLD	-0.231 ± 0.059
KRLCLVCGDIASGYHYGVASCEACKAFFKRTIQGNIEYSCPATNECEITKRRRKSCQACRFMKCLKVGILKEGVRLD	-0.581 ± 0.2
KRLCLVCGDIASGYHYGVASCEACKAFFKRTIQGNIEYSCPATNECEITKRRRKSCQACRFMKCLKVGQLKEGVRLD	-0.752 ± 0.14
KRLCLVCGDIASGYHYGVASCEACKAFFKRTIQGNIEYSCPATNECEITKRRRKSCQACRFMKCLKVGDLKEGVRLD	-0.694 ± 0.15
KRLCLVCGDIASGYHYGVASCEACKAFFKRTIQGNIEYSCPATNECEITKRRRKSCQACRFMKCLKVGPLKEGVRLD	-0.782 ± 0.17
KRLCLVCGDIASGYHYGVASCEACKAFFKRTIQGNIEYSCPATNECEITKRRRKSCQACRFMKCLKVGKLKEGVRLD	-0.931 ± 0.18
KRLCLVCGDIASGYHYGVASCEACKAFFKRTIQGNIEYSCPATNECEITKRRRKSCQACRFMKCLKVGCLKEGVRLD	-0.937 ± 0.21

Variant	abundance fitness
KRLCLVCGDIASGYHYGVASCEACKAFFKRTIQGNIEYSCPATNECEITKRRRKSCQACRFMKCLKVGYLKEGVRLD	-0.259 ± 0.097
KRLCLVCGDIASGYHYGVASCEACKAFFKRTIQGNIEYSCPATNECEITKRRRKSCQACRFMKCLKVGVLKEGVRLD	-0.749 ± 0.095
KRLCLVCGDIASGYHYGVASCEACKAFFKRTIQGNIEYSCPATNECEITKRRRKSCQACRFMKCLKVGGLKEGVRLD	-0.703 ± 0.075
KRLCLVCGDIASGYHYGVASCEACKAFFKRTIQGNIEYSCPATNECEITKRRRKSCQACRFMKCLKVGLLKEGVRLD	-0.431 ± 0.06
KRLCLVCGDIASGYHYGVASCEACKAFFKRTIQGNIEYSCPATNECEITKRRRKSCQACRFMKCLKVGTLKEGVRLD	-0.54 ± 0.12
KRLCLVCGDIASGYHYGVASCEACKAFFKRTIQGNIEYSCPATNECEITKRRRKSCQACRFMKCLKVGHLKEGVRLD	-1.06 ± 0.37
KRLCLVCGDIASGYHYGVASCEACKAFFKRTIQGNIEYSCPATNECEITKRRRKSCQACRFMKCLKVGFLKEGVRLD	0.058 ± 0.083
KRLCLVCGDIASGYHYGVASCEACKAFFKRTIQGNIEYSCPATNECEITKRRRKSCQACRFMKCLKIGMLKEGVRLD	-0.323 ± 0.14
KRLCLVCGDIASGYHYGVASCEACKAFFKRTIQGNIEYSCPATNECEITKRRRKSCQACRFMKCLKQGMLKEGVRLD	-0.439 ± 0.09
KRLCLVCGDIASGYHYGVASCEACKAFFKRTIQGNIEYSCPATNECEITKRRRKSCQACRFMKCLKMGMLKEGVRLD	-0.061 ± 0.069
KRLCLVCGDIASGYHYGVASCEACKAFFKRTIQGNIEYSCPATNECEITKRRRKSCQACRFMKCLKWGMLKEGVRLD	-0.665 ± 0.13
KRLCLVCGDIASGYHYGVASCEACKAFFKRTIQGNIEYSCPATNECEITKRRRKSCQACRFMKCLKRGMLKEGVRLD	-0.409 ± 0.056
KRLCLVCGDIASGYHYGVASCEACKAFFKRTIQGNIEYSCPATNECEITKRRRKSCQACRFMKCLKPGMLKEGVRLD	-1.03 ± 0.24
KRLCLVCGDIASGYHYGVASCEACKAFFKRTIQGNIEYSCPATNECEITKRRRKSCQACRFMKCLKNGMLKEGVRLD	-0.538 ± 0.24
KRLCLVCGDIASGYHYGVASCEACKAFFKRTIQGNIEYSCPATNECEITKRRRKSCQACRFMKCLKTGMLKEGVRLD	-0.262 ± 0.079
KRLCLVCGDIASGYHYGVASCEACKAFFKRTIQGNIEYSCPATNECEITKRRRKSCQACRFMKCLKSGMLKEGVRLD	-0.073 ± 0.054
KRLCLVCGDIASGYHYGVASCEACKAFFKRTIQGNIEYSCPATNECEITKRRRKSCQACRFMKCLKLGMLKEGVRLD	-0.222 ± 0.057
KRLCLVCGDIASGYHYGVASCEACKAFFKRTIQGNIEYSCPATNECEITKRRRKSCQACRFMKCLKYGMLKEGVRLD	-0.347 ± 0.14
